Measured values taken from IntAct's records for PubMed 23202584.

B1: Ubiquitin-like protein ATG12 (Homo sapiens), O94817 (parent)
chain: MAEEPQSVLQLPTSIAAGGEGLTDVSPETTTPEPPSSAAVSPGTEEPAGDTKKKIDILLKAVGDTPIMKTKKWAVERTRTIQGLIDFIKKFLKLVASEQLFIYVNQSFAPSPDQEVGTLYECFGSDGKLVLHYCKSQAWG

Variants of: B1
Details: with atg3_mouse Atg3, Q9CPX6
Chain of atg3_mouse Atg3, Q9CPX6 (Q9CPX6 whole entry): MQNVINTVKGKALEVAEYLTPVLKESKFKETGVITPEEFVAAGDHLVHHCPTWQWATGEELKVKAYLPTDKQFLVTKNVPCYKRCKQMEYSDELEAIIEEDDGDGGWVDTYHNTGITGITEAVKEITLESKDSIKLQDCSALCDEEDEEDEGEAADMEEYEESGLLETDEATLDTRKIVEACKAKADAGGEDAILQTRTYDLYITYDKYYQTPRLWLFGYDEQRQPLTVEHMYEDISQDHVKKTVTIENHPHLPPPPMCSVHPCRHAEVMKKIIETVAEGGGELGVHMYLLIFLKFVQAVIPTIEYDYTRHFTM

effect of a mutation on the interaction | Variant
disrupting interaction strength | MAEEPQSVLQLPTSIAAGGEGLTDVSPETTTPEPPSSAAVSPGTEEPAGDTKKDIDILLKAVGDTPIMKTKKWAVERTRTIQGLIDFIKKFLKLVASEQLFIYVNQSFAPSPDQEVGTLYECFGSDGKLVLHYCKSQAWG
disrupting interaction strength | MAEEPQSVLQLPTSIAAGGEGLTDVSPETTTPEPPSSAAVSPGTEEPAGDTKKKIDILLKAVGDTPIMKTKKAAVERTRTIQGLIDFIKKFLKLVASEQLFIYVNQSFAPSPDQEVGTLYECFGSDGKLVLHYCKSQAWG
disrupting interaction strength | MAEEPQSVLQLPTSIAAGGEGLTDVSPETTTPEPPSSAAVSPGTEEPAGDTKKKIDILLKAVGDTPIMKTKDWAVERTRTIQGLIDFIKKFLKLVASEQLFIYVNQSFAPSPDQEVGTLYECFGSDGKLVLHYCKSQAWG
